# According to US20200347130A1 (JIANGSU HENGRUI MEDICINE, published 2020):
# Numbering of substitutions follows the chain as printed.
# T1: Full-length human CD96 on CHO-S cells (human, UniProt P40200 22-585)
# T1 construct: also called CD96-CHOs; hCD96-CHOs
# T1 sequence: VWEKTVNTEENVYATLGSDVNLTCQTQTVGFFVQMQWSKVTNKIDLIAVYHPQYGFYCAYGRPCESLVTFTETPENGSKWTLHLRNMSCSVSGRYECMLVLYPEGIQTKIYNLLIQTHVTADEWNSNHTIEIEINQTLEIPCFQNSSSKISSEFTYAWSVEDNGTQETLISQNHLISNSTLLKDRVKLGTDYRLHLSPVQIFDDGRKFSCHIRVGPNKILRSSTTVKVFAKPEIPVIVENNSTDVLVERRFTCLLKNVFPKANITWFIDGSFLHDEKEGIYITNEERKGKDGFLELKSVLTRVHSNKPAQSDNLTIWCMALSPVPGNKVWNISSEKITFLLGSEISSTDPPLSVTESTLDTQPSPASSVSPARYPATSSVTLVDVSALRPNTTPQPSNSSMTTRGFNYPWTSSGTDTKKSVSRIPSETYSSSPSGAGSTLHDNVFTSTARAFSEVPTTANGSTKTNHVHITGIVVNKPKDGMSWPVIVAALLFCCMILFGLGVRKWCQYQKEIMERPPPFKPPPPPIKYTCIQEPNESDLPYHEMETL
# T2: CD96 extracellular region with His tag (CD96-His) (human, UniProt P40200 22-519)
# T2 construct: also called CD96-ECD-His; Bio-CD96-His (biotin-labelled form)
# T2 sequence: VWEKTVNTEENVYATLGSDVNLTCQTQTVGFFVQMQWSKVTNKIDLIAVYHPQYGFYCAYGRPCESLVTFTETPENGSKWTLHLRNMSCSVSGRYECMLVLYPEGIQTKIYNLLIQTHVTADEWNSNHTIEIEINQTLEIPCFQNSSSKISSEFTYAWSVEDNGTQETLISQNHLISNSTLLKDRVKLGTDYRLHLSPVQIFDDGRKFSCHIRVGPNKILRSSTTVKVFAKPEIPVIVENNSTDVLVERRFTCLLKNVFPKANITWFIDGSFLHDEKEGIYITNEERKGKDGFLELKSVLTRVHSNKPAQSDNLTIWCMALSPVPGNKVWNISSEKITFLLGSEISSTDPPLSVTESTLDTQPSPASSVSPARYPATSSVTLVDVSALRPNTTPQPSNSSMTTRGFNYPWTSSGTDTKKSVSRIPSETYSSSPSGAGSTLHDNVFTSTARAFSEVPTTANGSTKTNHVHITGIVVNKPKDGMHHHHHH
# B1: ch1720 (antibody, human IgG4 S228P, kappa, V domains shown)
# VH: EFQLQQSGPELVKPGASVKISCKASAYSLTDYNMNWVKQSNGKSLEWIGVINPSYGISSYNQKFKGKATLTVDQSSSTAYMHLNSLTSEDSAVYYCARQLRLPGYFDVWGTGTTVTVSS
# VL: DIKMTQSPSSKNASLGERVTITCKASQDINSYLNWFQQKPGKSPKTLIYRASRLVDGVPSRFSGSGSGQDYSLTISSLEYEDMGIYYCLKYDEFPYTFGGGTKLEIKR
# notes: also called chimeric antibody corresponding to m1720
# B2: ch1718 (antibody, human IgG4 S228P, kappa, V domains shown)
# VH: B1 VH with L29I, S58T, S59D, K63N, G66D, H82Q, R98I, T116I
# VL: B1 VL with K11M, N12Y, S31N, S52N, L104V
# notes: also called chimeric antibody corresponding to m1718
# B3: ch1722 (antibody, human IgG4 S228P, kappa, V domains shown)
# VH: QVQLQQPGAELVKPGTSVKLSCKASGNTFIDYWMHWVKQRPGQGLEWIGMLHPNSGTTSFNEKFKIKTTLTIDKSSSTAYMQLSSLTSEDSAIYYCASDYSGPFAYWGQGTLVTVSA
# VL: QIVLTQSPGIMSAFPGEKVTMTCSASSSVNYIHWYQQKSGTSPKRWIFDTSKLASGVPARFSGSGSGTSYSLTISSMEAEDAATYYCQQWRSNPLTFGAGTKLELKR
# notes: also called chi722; chimeric antibody corresponding to m1722
# B4: h1722-010 (antibody, V domains shown)
# VH: EVQLVQSGAEVKKPGSSVKVSCKASGGTFSDYWMHWVRQAPGQGLEWIGMLHPNSGTTSFNEKFKIRVTITADKSTSTAYMELSSLRSEDTAVYYCASDYSGPFAYWGQGTLVTVSS
# VL: DIQLTQSPSSLSASVGDRVTITCSASSSVNYIHWYQQKPGKAPKRWIFDTSKLASGVPSRFSGSGSGTDYTLTISSLQPEDFATYYCQQWRSNPLTFGQGTKLEIK
# notes: Only variable regions are tied to this name; also called M722-010
# B5: h1722-006 (antibody, V domains shown)
# VH: B4 VH
# VL: B4 VL with L4M, F48Y, Y70F
# notes: Only variable regions are tied to this name
# B6: h1722-017 (antibody, V domains shown)
# VH: B4 VH with N54K
# VL: B4 VL
# B7: h1722-018 (antibody, V domains shown)
# VH: B4 VH with N54Q
# VL: B4 VL
# B8: h1721-003 (antibody, V domains shown)
# VH: EVTLKESGPVLVKPTETLTLTCTVSGFSLSSYGVNWIRQPPGKALEWLGVIWGDGSTNYHSALISRLTISKDTSKSQVVLTLTNMDPVDTATYYCAKNYFYGSRYGYAMDSWGQGTTVTVSS
# VL: DIQMTQSPSSLSASVGDRVTITCRASENIYSSLAWYQQKPGKAPKLLIYNAKTLIEGVPSRFSGSGSGTDFTLTISSLQPEDFATYYCQHHYGTPYTFGGGTKVEIK
# notes: Only variable regions are tied to this name; also called M721-003
# B9: h1718-012 (antibody, V domains shown)
# VH: EVQLVQSGAEVKKPGASVKVSCKASGYTITDYNMNWVRQAPGQRLEWIGVINPSYGITDYNQNFKDRVTITVDTSASTAYMELSSLRSEDTAVYYCAIQLRLPGYFDVWGQGTTVTVSS
# VL: DIQMTQSPSSLSASVGDRVTITCKASQDINQYLNWFQQKPGKAPKTLIYRANRLVDGVPSRFSGSGSGQDYTLTISSLQPEDFATYYCLKYDEFPYTFGGGTKVEIK
# notes: as for B5
# B10: ch1719 (antibody, human IgG4 S228P, kappa, V domains shown)
# VH: QVQLKESGPGLVAPSQSLSITCTVSGFSLISYGVSWVRQPPGKGLEWLGVIWGDGNTNYHSVLISRLSIRKDDSKSQVFLKLNSLQTDDTATYYCAKNNYYGSRYGYPMDYWGQGTSVTVSS
# VL: DIVMTQSHKFMSTSVGDRVSITCKATQDVGTAVAWYQQKPGHSPKLLIYWASTRHTGVPERFTGSGSGTDFTLTIDNVQSEDLADYFCQQYGSSVLTFGAGTKVELRR
# notes: also called chimeric antibody corresponding to m1719
# B11: ch1721 (antibody, human IgG4 S228P, kappa, V domains shown)
# VH: B10 VH with S35N, N56S, V62A, R70S, K81N, N99Y, Y100F, P108A, Y111S, T116I
# VL: DIQMTQSPASLSAAVGETVTITCRASENIYSSLAWYQQKQGKSPQLLVYNAKTLIETVASRFSGSGSGTQYSLKINSLQPEDFGSFYCQHHYGTPYTFGGGTKLEIKR
# notes: also called chimeric antibody corresponding to m1721
# B12: h1719-010 (antibody, V domains shown)
# VH: EVTLKESGPVLVKPTETLTLTCTVSGFSLSSYGVSWVRQPPGKGLEWLGVIWGDGNTNYHSVLISRLTISKDTSKSQVVLTLTNMDPVDTATYYCAKQNYYGSRYGYPIDYWGQGTTVTVSS
# VL: DIQMTQSPSSVSASVGDRVTITCKATQDVGTAVAWYQQKPGKAPKLLIYWASTRHTGVPSRFSGSGSGTDFTLTISSLQPEDFATYYCQQYGSSVLTFGGGTKVEIK
# notes: as for B5
# Target: T1, Full-length human CD96 on CHO-S cells
# Test: cell ELISA, fixed CD96-overexpressing CHO-S cells
# Description: The binding capacity of the anti-CD96 antibody was tested by binding experiments of the antibody to human CD96 protein overexpressing CHO-S cells. The full-length CD96 plasmid was transfected into CHO-S cells by electrotransfection, and cells were then screened for two weeks under pressure for the detection of the expression of CD96. After the over-expressing cells were fixed at the bottom of the 96-well plate, the density of the signal after adding the antibody was used to judge the binding activity of the antibody to CD96 overexpressing CHO-S cells. The specific experimental method is as follows:
# The cells were seeded at a density of 9×10⁴/100 μL/well in a 96-well plate and cultured overnight. After aspirating the supernatant, the plate was washed once with PBS, subsequently, 100 μl/well immunostaining fixation solution (Biyuntian, P0098) was added and fixed for one hour at room temperature, and the plate was washed three times with PBS. Once the liquid was discarded, 250 μl/well of 5% skim milk (BD, 232100) blocking solution diluted with PBS was added, and the plate was blocked in an incubator at 37° C. for 2.5 hours. After blocking, the blocking solution was discarded, the plate was washed 4 times with PBST buffer (pH 7.4 PBS containing 0.05% tween-20), followed by diluting 50 μl/well of different concentrations of the antibodies (hybridoma purification antibody or humanized antibody) to be tested the plate was incubated in an incubator at 37° C. for 2 hours. After incubation, the plate was wash 4 times with PBST. […] After washing the plate 4 times with PBST, 50 μl/well of TMB chromogenic substrate (KPL, Cat No. 52-00-03) was added, the plate was incubated at room temperature for 10-25 min, followed by adding 50 μl/well of 1M H₂SO₄ to stop the reaction. The absorption value was read at 450 nm with a NOVOStar microplate reader, and the EC50 value of the CD96 antibodies to CD96 overexpressing CHO-S cells was calculated (see FIG. 1 and Table 15).
row,EC50 [pM],Binder
1,36,B1
2,26,B2
3,43,B3
4,47,B4
5,43,B5
6,53,B6
7,44,B7
8,74,B8
9,31,B9
10,12,B10
11,36,B11

# Target: T2, CD96 extracellular region with His tag …
# Test: ELISA, CD96-His coated
# Description: The binding capacity of the anti-CD96 antibody was tested by ELISA to determine the binding of the antibody to human CD96 protein. The His-tagged CD96 fusion protein was used to coat the microtiter plate, and the intensity of the signal after adding with the antibody was used for evaluating the binding activity of the antibody and CD96. The specific experimental method is as follows:
# CD96-His with the sequence of SEQ ID NO: 4 prepared in Embodiment 1 was diluted to a concentration of 2 μg/ml with PBS buffer (Shanghai Yuanpei Biotechnology Co., Ltd. Cat No. B320), pH 7.4, added to a 96-well microtiter plate (Corning, Cat No. CLS3590-100EA) at a volume of 50 μl/well, and placed in an incubator at 37° C. for 2 hours. After discarding the liquid, 250 μl/well of 5% skim milk (BD, Cat No. 232100) blocking solution diluted with PBS was added, and the plate was incubated at 37° C. for 2.5 hours or at 4° C. overnight (16-18 hours) for blocking. After blocking, the blocking solution was discarded, and the plate was washed 4 times with PBST buffer (pH 7.4 PBS containing 0.05% tween-20). 50 μl/well of different concentrations of the antibodies to be tested (hybridoma purification antibody or humanized antibody) diluted with sample dilution was added, and the plate was incubated in an incubator at 37° C. for 1 hour. […] After washing the plate 4 times with PBST, 50 μl/well of TMB chromogenic substrate (KPL, Cat No. 52-00-03) was added, and the plate was incubated at room temperature for 5-15 minutes, followed by adding 50 μl/well of 1M H₂SO₄ to stop the reaction. The absorption value was read at 450 nm with a NOVOStar microplate reader, and the EC50 value of the binding of CD96 antibody to human CD96 was calculated (see Table 13).
row,EC50 [pM],Binder
1,74,B1
2,84,B2
3,94,B3
4,73,B4
5,77,B5
6,113,B6
7,91,B7
8,70,B8
9,95,B9
10,65,B10
11,75,B11

# Target: T2, CD96 extracellular region with His tag …
# Test: SPR (Biacore), antibody captured, CD96-ECD-His as mobile phase
# Text: Protein A biosensor chip was used to capture antibodies to be tested, then CD96 antigen was flowed on the surface of the chip, and real time reaction signal was detected by Biacore to obtain the binding and dissociation curve. After the dissociation of each experimental cycle was completed, the biosensor chip was washed and regenerated with a glycine-hydrochloric acid regeneration solution (pH 1.5).
row,Kd [pM],Binder
1,1350,B1
2,3320,B2
3,1050,B3
4,465000,B12
5,860,B4
6,1190,B5
7,1610,B8
8,3980,B9
9,9740,B10
10,2280,B11
